According to publication PMC6547806:

Biological target: Angiomotin (Amot80) coiled-coil homology (ACCH) domain, wild type
Assay: SEC

stoichiometry N: 4
Substance: Angiomotin (Amot80) coiled-coil homology (ACCH) domain, wild type (domain or fragment)
